{
  "source": "paper PMC9080259",
  "about": "“Dual-cycle immobilization to reuse both enzyme and support by reblossoming enzyme–inorganic hybrid nanoflowers” (RSC Advances, 2018)",
  "test_in_all_cases": "purified protein",
  "key": {"purified protein [1]": {"substrate": "CC(=O)Oc1ccc([N+](=O)[O-])cc1", "format": "biochemical, Moesziomyces antarcticus", "details": "free enzyme, PBS 100 mM pH 6.5, 37 °C, substrate of the kinetics taken from the activity assay"}, "purified protein [2]": {"substrate": "CCOC(=O)[C@H](CCCNC(=N)N)NC(=O)c1ccccc1", "details": "free enzyme, 37 °C, pH not told, substrate of the kinetics taken from the activity assay"}, "purified protein [3]": {"substrate": "CC(=O)Oc1ccc([N+](=O)[O-])cc1", "format": "biochemical, Thermomyces lanuginosus", "details": "free enzyme, PBS 100 mM pH 6.5, 37 °C, substrate of the kinetics taken from the activity assay"}},
  "data": [
    {"protein": "Lipase B from Candida antarctica (CALB) (Moesziomyces antarcticus) (protein) LPSGSDPAFSQPKSVLDAGLTCQGASPSSVSKPILLVPGTGTTGPQSFDSNWIPLSTQLGYTPCWISPPPFMLNDTQVNTEYMVNAITALYAGSGNNKLPVLTWSQGGLVAQWGLTFFPSIRSKVDRLMAFAPDYKGTVLAGPLDALAVSAPSVWQQTTGSALTTALRNAGGLTQIVPTTNLYSATDEIVQPQVSNSPLDSSYLFNGKNVQAQAVCGPLFVIDHAGSLTSQFSYVVGRSALRSTTGQARSADYGITDCNPLPANDLTPEQKVAAAALLAPAAAAIVAGPKQNCEPDLMPYARPFAVGKRTCSGIVTP", "values": [
      {"measurement": "Km", "setting": "purified protein [1]", "value": "6.36 ± 0.321", "unit": "mM"},
      {"measurement": "kcat", "setting": "purified protein [1]", "value": "56.8 ± 2.73", "unit": "s⁻¹"},
      {"measurement": "kcat/Km", "setting": "purified protein [1]", "value": "8920 ± 23", "unit": "M⁻¹ s⁻¹"}
    ]},
    {"protein": "Papain (Carica papaya) (protein) IPEYVDWRQKGAVTPVKNQGSCGSCWAFSAVVTIEGIIKIRTGNLNEYSEQELLDCDRRSYGCNGGYPWSALQLVAQYGIHYRNTYPYEGVQRYCRSREKGPYAAKTDGVRQVQPYNEGALLYSIANQPVSVVLEAAGKDFQLYRGGIFVGPCGNKVDHAVAAVGYGPNYILIKNSWGTGWGENGYIRIKRGTGNSYGVCGLYTSSFYPVKN", "values": [
      {"measurement": "Km", "setting": "purified protein [2]", "value": "1.01 ± 0.05", "unit": "mM"},
      {"measurement": "kcat", "setting": "purified protein [2]", "value": 2.67, "unit": "s⁻¹"},
      {"measurement": "kcat/Km", "setting": "purified protein [2]", "value": 2670, "unit": "M⁻¹ s⁻¹"}
    ]},
    {"protein": "Lipase from Thermomyces lanuginosus (TLL) (Thermomyces lanuginosus) (protein) EVSQDLFNQFNLFAQYSAAAYCGKNNDAPAGTNITCTGNACPEVEKADATFLYSFEDSGVGDVTGFLALDNTNKLIVLSFRGSRSIENWIGNLNFDLKEINDICSGCRGHDGFTSSWRSVADTLRQKVEDAVREHPDYRVVFTGHSLGGALATVAGADLRGNGYDIDVFSYGAPRVGNRAFAEFLTVQTGGTLYRITHTNDIVPRLPPREFGYSHSSPEYWIKSGTLVPVTRNDIVKIEGIDATGGNNQPNIPDIPAHLWYFGLIGTCL", "values": [
      {"measurement": "Km", "setting": "purified protein [3]", "value": "16.58 ± 0.793", "unit": "mM"},
      {"measurement": "kcat", "setting": "purified protein [3]", "value": "29.3 ± 1.26", "unit": "s⁻¹"},
      {"measurement": "kcat/Km", "setting": "purified protein [3]", "value": "1770 ± 8", "unit": "M⁻¹ s⁻¹"}
    ]}
  ]
}
